Columns and labels:
[1] = biological target: CD28 on cells (PBMCs, T responder cells) (human) (UniProt P10747); experiment: flow cytometry; Fab monomers remaining on the liberated CD28+ cells after D-biotin and washing, detected with an antibody against the immunoglobulin kappa light chain
[2] = biological target: CD3 on Jurkat cells and on PBMCs (UniProt P07766); experiment: flow cytometry; second Fab-multimer staining of PBMCs that had been stained reversibly, treated with D-biotin and washed (control panel, far right)
Sequence of UniProt P07766 (P07766 23-207): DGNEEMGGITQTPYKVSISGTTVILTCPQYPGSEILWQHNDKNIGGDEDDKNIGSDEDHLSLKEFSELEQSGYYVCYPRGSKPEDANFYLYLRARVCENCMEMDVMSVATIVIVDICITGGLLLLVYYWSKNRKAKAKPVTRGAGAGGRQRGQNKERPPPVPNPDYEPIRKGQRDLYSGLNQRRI

Row | % of cells within gate [1] [%] | % of cells within gate [2] [%] | Substance
1 | 5.91 | – | anti-CD28 Fab fragment derived from antibody CD28.3, heavy chain C-terminally fused to Twin-Strep-tag (monomeric Fab)
2 | – | 64.7 | OKT3 Fab fragments multimerized by reversible binding to soluble Strep-Tactin conjugated with phycoerythrin

Source: US20200017880A1
